B1: LINE1-full (parent)
chain: UACGUAGGUGGUUUUCCCCUGAUAGUGCUAAGGGGGCCUGGAAGUUUGGACUGGGCAGAGCUCAACACAGCGUGGCAAAGUGGCUGUGGCUAGACUGCCUCUCUGGAUUCCUCGUCACUCAGCAGGGCAUCUCUGAGAGAAAUGCC

Variants of: B1
Assay: self-cleavage, relative activity (ratio to wild type); higher = more cleavage; in vitro, sequencing; the parent is a self-cleaving ribozyme

Variant	self-cleavage
UACGUAGGUGGUUUUCCCCUGAUAGUGCUAAGGGGGCCUGGAAGUUUGGAAUGGGCAGAGCUCAACACAGCGUGGCAAAGUGGCUGUGGCUAGACAGCCUCUCUGGAUUCCUCGUCACUCAGCAGGGCAUCUCUGAGAGAAAUGCC [C51A U96A]	0.11
UACGUAGGUGGUUUUCCCCUGAUAGUGCUAAGGGGGCCUGGAAGUUUGGAAUGGGCAGAGCUCAACACAGCGUGGCAAAGUGGCUGUGGCUAGACUGCCUCUCUGGAUCCCUCGUCACUCAGCAGGGCAUCUCUGAGAGAAAUGCC [C51A U109C]	1.35
UACGUAGGUGGUUUUCCCCUGAUAGUGCUAAGGGGGCCUGGAAGUUUGGAGUGGGCAGAGCUCAACACAGCGUGGCAAAGUGGCUGUGGCUAGACUGCCUCUCUGGAUUCCUCGUCACUCAGCAGGGCAUCUCUGAGAGAAAUGCC [C51G]	1.63
UACGUAGGUGGUUUUCCCCUGAUAGUGCUAAGGGGGCCUGGAAGUUUGGAGUGGGCAGAGCCCAACACAGCGUGGCAAAGUGGCUGUGGCUAGACUGCCUCUCUGGAUUCCUCGUCACUCAGCAGGGCAUCUCUGAGAGAAAUGCC [C51G U62C]	0.08
UACGUAGGUGGUUUUCCCCUGAUAGUGCUAAGGGGGCCUGGAAGUUUGGAGUGGGCAGAGCUCAACACAGCGUGGCAAAGUGGCUGUGGCUAGACAGCCUCUCUGGAUUCCUCGUCACUCAGCAGGGCAUCUCUGAGAGAAAUGCC [C51G U96A]	0.05
UACGUAGGUGGUUUUCCCCUGAUAGUGCUAAGGGGGCCUGGAAGUUUGGAUUGGGCAGAGCUCAACACAGCGUGGCAAAGUGGCUGUGGCUAGACUGCCUCUCUGGAUUCCUCGUCACUCAGCAGGGCAUCUCUGAGAGAAAUGCC [C51U]	1.3
UACGUAGGUGGUUUUCCCCUGAUAGUGCUAAGGGGGCCUGGAAGUUUGGAUUGGGCGGAGCUCAACACAGCGUGGCAAAGUGGCUGUGGCUAGACUGCCUCUCUGGAUUCCUCGUCACUCAGCAGGGCAUCUCUGAGAGAAAUGCC [C51U A57G]	0.17
UACGUAGGUGGUUUUCCCCUGAUAGUGCUAAGGGGGCCUGGAAGUUUGGAUUGGGCAGAGCUCAACCCAGCGUGGCAAAGUGGCUGUGGCUAGACUGCCUCUCUGGAUUCCUCGUCACUCAGCAGGGCAUCUCUGAGAGAAAUGCC [C51U A67C]	0.05
UACGUAGGUGGUUUUCCCCUGAUAGUGCUAAGGGGGCCUGGAAGUUUGGAUUGGGCAGAGCUCAACACAGCGUGGCAGAGUGGCUGUGGCUAGACUGCCUCUCUGGAUUCCUCGUCACUCAGCAGGGCAUCUCUGAGAGAAAUGCC [C51U A78G]	1.09
UACGUAGGUGGUUUUCCCCUGAUAGUGCUAAGGGGGCCUGGAAGUUUGGAUUGGGCAGAGCUCAACACAGCGUGGCAUAGUGGCUGUGGCUAGACUGCCUCUCUGGAUUCCUCGUCACUCAGCAGGGCAUCUCUGAGAGAAAUGCC [C51U A78U]	2.19
UACGUAGGUGGUUUUCCCCUGAUAGUGCUAAGGGGGCCUGGAAGUUUGGAUUGGGCAGAGCUCAACACAGCGUGGCAAGGUGGCUGUGGCUAGACUGCCUCUCUGGAUUCCUCGUCACUCAGCAGGGCAUCUCUGAGAGAAAUGCC [C51U A79G]	1.53
UACGUAGGUGGUUUUCCCCUGAUAGUGCUAAGGGGGCCUGGAAGUUUGGAUUGGGCAGAGCUCAACACAGCGUGGCAAAGUGGCUGUGGCUAGACUGCCUCUCUGGAUUCCUCGUCCCUCAGCAGGGCAUCUCUGAGAGAAAUGCC [C51U A117C]	1.28
UACGUAGGUGGUUUUCCCCUGAUAGUGCUAAGGGGGCCUGGAAGUUUGGAUUGGGCAGAGCUCAACACAGCGUGGCAAAGUGGCUGUGGCUAGACUGCCUCUCUGGAUUCCUCGUCGCUCAGCAGGGCAUCUCUGAGAGAAAUGCC [C51U A117G]	1.5
UACGUAGGUGGUUUUCCCCUGAUAGUGCUAAGGGGGCCUGGAAGUUUGGAUUGGGCAGAGCUCAACACAGCGUGGCAAAGUGGCUGUGGCUAGACUGCCUCUCUGGAUUCCUCGUCACUCAGCUGGGCAUCUCUGAGAGAAAUGCC [C51U A124U]	2.12
UACGUAGGUGGUUUUCCCCUGAUAGUGCUAAGGGGGCCUGGAAGUUUGGAUUGGGCAGAGCUCAACACAGCGUGGCAAAGUGGCUGUGGCUAGACUGCCUCUCUGGAUUCCUCGUCACUCAGCAGGGCUUCUCUGAGAGAAAUGCC [C51U A129U]	1.63
UACGUAGGUGGUUUUCCCCUGAUAGUGCUAAGGGGGCCUGGAAGUUUGGAUUGGGCAGAGCUCAACACAGCGUGGCAAAGUGGCUGUGGCUAGACUGCCUCUCUGGAUUCCUCGUCACUCAGCAGGGCAUCUCUGAGAGGAAUGCC [C51U A140G]	1.09
UACGUAGGUGGUUUUCCCCUGAUAGUGCUAAGGGGGCCUGGAAGUUUGGAUUGGGCAGAGCUCAACACAGCGUGGCAAAGUGGCUGUGGCUAGACUGCCUCUCUGGAUUCCUCGUCACUCAGCAGGGCAUCUCUGAGAGAACUGCC [C51U A142C]	1.25
UACGUAGGUGGUUUUCCCCUGAUAGUGCUAAGGGGGCCUGGAAGUUUGGAUUGGGCAGAGCUCAACACAGCGUGGCAAAGUGGCUGUGGCUAGACUGCCUCUCUGGAUUCCUCGUCACUCAGCAGGGCAUCUCUGAGAGAAGUGCC [C51U A142G]	1.7
UACGUAGGUGGUUUUCCCCUGAUAGUGCUAAGGGGGCCUGGAAGUUUGGAUUGGGCAGAGCUCAACACAGCGUGGCAAAGUGGCUGUGGCUAGACUGCCUCUCUGGAUUCCUCGUCACUCAGCAGGGCAUAUCUGAGAGAAAUGCC [C51U C131A]	1.23
UACGUAGGUGGUUUUCCCCUGAUAGUGCUAAGGGGGCCUGGAAGUUUGGAUUGGGCAGAGCUCAACACAGCGUGGCAAAGUGGCUGUGGCUAGACUGCCUCUCUGGAUUCCUCGUCACUCAGCAGGGCAUCUCUGAGAGAAAUGGC [C51U C145G]	1.28

Variant	self-cleavage
UACGUAGGUGGUUUUCCCCUGAUAGUGCUAAGGGGGCCUGGAAGUUUGGAUUGGGCAGAGCUCAACACAGCGUGGCAAAGUGGCUGUGUCUAGACUGCCUCUCUGGAUUCCUCGUCACUCAGCAGGGCAUCUCUGAGAGAAAUGCC [C51U G89U]	0.03
UACGUAGGUGGUUUUCCCCUGAUAGUGCUAAGGGGGCCUGGAAGUUUGGAUUGGGCAGAGCUCAACACAGCGUGGCAAAGUGGCUGUGGCUAGACUGCCUCUCUGGAUUCCUCGUCACUCAGCAGGACAUCUCUGAGAGAAAUGCC [C51U G127A]	1.35
UACGUAGGUGGUUUUCCCCUGAUAGUGCUAAGGGGGCCUGGAAGUUUGGAUUGGGCAGAGCACAACACAGCGUGGCAAAGUGGCUGUGGCUAGACUGCCUCUCUGGAUUCCUCGUCACUCAGCAGGGCAUCUCUGAGAGAAAUGCC [C51U U62A]	0.07
UACGUAGGUGGUUUUCCCCUGAUAGUGCUAAGGGGGCCUGGAAGUUUGGAUUGGGCAGAGCUCAACACAGCGUGGCAAAGUGGCCGUGGCUAGACUGCCUCUCUGGAUUCCUCGUCACUCAGCAGGGCAUCUCUGAGAGAAAUGCC [C51U U85C]	0.19
UACGUAGGUGGUUUUCCCCUGAUAGUGCUAAGGGGGCCUGGAAGUUUGGAUUGGGCAGAGCUCAACACAGCGUGGCAAAGUGGCUGUGGCUAGACCGCCUCUCUGGAUUCCUCGUCACUCAGCAGGGCAUCUCUGAGAGAAAUGCC [C51U U96C]	0.12
UACGUAGGUGGUUUUCCCCUGAUAGUGCUAAGGGGGCCUGGAAGUUUGGAUUGGGCAGAGCUCAACACAGCGUGGCAAAGUGGCUGUGGCUAGACUGCCUCUCAGGAUUCCUCGUCACUCAGCAGGGCAUCUCUGAGAGAAAUGCC [C51U U104A]	1.02
UACGUAGGUGGUUUUCCCCUGAUAGUGCUAAGGGGGCCUGGAAGUUUGGAUUGGGCAGAGCUCAACACAGCGUGGCAAAGUGGCUGUGGCUAGACUGCCUCUCUGGAUUCCUCGUCACCCAGCAGGGCAUCUCUGAGAGAAAUGCC [C51U U119C]	1.73
UACGUAGGUGGUUUUCCCCUGAUAGUGCUAAGGGGGCCUGGAAGUUUGGACAGGGCAGAGCUCUACACAGCGUGGCAAAGUGGCUGUGGCUAGACUGCCUCUCUGGAUUCCUCGUCACUCAGCAGGGCAUCUCUGAGAGAAAUGCC [U52A A64U]	0.46
UACGUAGGUGGUUUUCCCCUGAUAGUGCUAAGGGGGCCUGGAAGUUUGGACAGGGCAGAGCUCAGCACAGCGUGGCAAAGUGGCUGUGGCUAGACUGCCUCUCUGGAUUCCUCGUCACUCAGCAGGGCAUCUCUGAGAGAAAUGCC [U52A A65G]	0.04
UACGUAGGUGGUUUUCCCCUGAUAGUGCUAAGGGGGCCUGGAAGUUUGGACAGGGCAGAGCUCAUCACAGCGUGGCAAAGUGGCUGUGGCUAGACUGCCUCUCUGGAUUCCUCGUCACUCAGCAGGGCAUCUCUGAGAGAAAUGCC [U52A A65U]	0.21
UACGUAGGUGGUUUUCCCCUGAUAGUGCUAAGGGGGCCUGGAAGUUUGGACAGGGCAGAGCUCAACGCAGCGUGGCAAAGUGGCUGUGGCUAGACUGCCUCUCUGGAUUCCUCGUCACUCAGCAGGGCAUCUCUGAGAGAAAUGCC [U52A A67G]	0.38
UACGUAGGUGGUUUUCCCCUGAUAGUGCUAAGGGGGCCUGGAAGUUUGGACAGGGCAGAGCUCAACUCAGCGUGGCAAAGUGGCUGUGGCUAGACUGCCUCUCUGGAUUCCUCGUCACUCAGCAGGGCAUCUCUGAGAGAAAUGCC [U52A A67U]	0.05
UACGUAGGUGGUUUUCCCCUGAUAGUGCUAAGGGGGCCUGGAAGUUUGGACAGGGCAGAGCUCAACACGGCGUGGCAAAGUGGCUGUGGCUAGACUGCCUCUCUGGAUUCCUCGUCACUCAGCAGGGCAUCUCUGAGAGAAAUGCC [U52A A69G]	0.71
UACGUAGGUGGUUUUCCCCUGAUAGUGCUAAGGGGGCCUGGAAGUUUGGACAGGGCAGAGCUCAACACAGCGUGGCGAAGUGGCUGUGGCUAGACUGCCUCUCUGGAUUCCUCGUCACUCAGCAGGGCAUCUCUGAGAGAAAUGCC [U52A A77G]	2.06
UACGUAGGUGGUUUUCCCCUGAUAGUGCUAAGGGGGCCUGGAAGUUUGGACAGGGCAGAGCUCAACACAGCGUGGCAAGGUGGCUGUGGCUAGACUGCCUCUCUGGAUUCCUCGUCACUCAGCAGGGCAUCUCUGAGAGAAAUGCC [U52A A79G]	1.09
UACGUAGGUGGUUUUCCCCUGAUAGUGCUAAGGGGGCCUGGAAGUUUGGACAGGGCAGAGCUCAACACAGCGUGGCAAAGUGGCUGUGGCUGGACUGCCUCUCUGGAUUCCUCGUCACUCAGCAGGGCAUCUCUGAGAGAAAUGCC [U52A A92G]	0.11
UACGUAGGUGGUUUUCCCCUGAUAGUGCUAAGGGGGCCUGGAAGUUUGGACAGGGCAGAGCUCAACACAGCGUGGCAAAGUGGCUGUGGCUAGGCUGCCUCUCUGGAUUCCUCGUCACUCAGCAGGGCAUCUCUGAGAGAAAUGCC [U52A A94G]	0.33
UACGUAGGUGGUUUUCCCCUGAUAGUGCUAAGGGGGCCUGGAAGUUUGGACAGGGCAGAGCUCAACACAGCGUGGCAAAGUGGCUGUGGCUAGUCUGCCUCUCUGGAUUCCUCGUCACUCAGCAGGGCAUCUCUGAGAGAAAUGCC [U52A A94U]	0.52
UACGUAGGUGGUUUUCCCCUGAUAGUGCUAAGGGGGCCUGGAAGUUUGGACAGGGCAGAGCUCAACACAGCGUGGCAAAGUGGCUGUGGCUAGACUGCCUCUCUGGGUUCCUCGUCACUCAGCAGGGCAUCUCUGAGAGAAAUGCC [U52A A107G]	0.98
